Experimental data published in patent publication US20100240066A1 (MCGILL UNIVERSITY, published 2010).
Where no end group is shown, it is not given here.

T1: E-cadherin/Fc chimeric protein (human, UniProt P12830 155-707)
T1 construct: range 155-707; Bought from R&D Systems; also called E-cad/Fc; human E-cadherin/Fc chimeric protein; not shown: Fc region of human IgG1
T1 sequence (looked up): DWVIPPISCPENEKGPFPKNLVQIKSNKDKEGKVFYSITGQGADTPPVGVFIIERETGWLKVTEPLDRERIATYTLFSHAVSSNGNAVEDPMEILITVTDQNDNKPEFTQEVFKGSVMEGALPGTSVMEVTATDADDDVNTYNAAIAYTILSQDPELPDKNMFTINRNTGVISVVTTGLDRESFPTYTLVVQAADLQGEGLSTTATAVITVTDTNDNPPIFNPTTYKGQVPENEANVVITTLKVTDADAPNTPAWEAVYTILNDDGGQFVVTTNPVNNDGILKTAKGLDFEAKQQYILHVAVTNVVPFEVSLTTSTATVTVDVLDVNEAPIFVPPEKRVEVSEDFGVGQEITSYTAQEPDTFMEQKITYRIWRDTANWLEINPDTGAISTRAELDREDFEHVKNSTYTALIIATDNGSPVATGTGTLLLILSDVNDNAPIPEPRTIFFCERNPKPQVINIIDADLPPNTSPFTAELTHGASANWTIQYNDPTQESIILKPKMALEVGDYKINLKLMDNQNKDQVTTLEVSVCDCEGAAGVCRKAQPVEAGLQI

T2: N-cadherin/Fc chimeric protein (human, UniProt P19022 160-724)
T2 construct: range 160-724; Bought from R&D Systems; also called N-cad/Fc; human N-cadherin/Fc chimeric protein; not shown: Fc region of human IgG1
T2 sequence (looked up): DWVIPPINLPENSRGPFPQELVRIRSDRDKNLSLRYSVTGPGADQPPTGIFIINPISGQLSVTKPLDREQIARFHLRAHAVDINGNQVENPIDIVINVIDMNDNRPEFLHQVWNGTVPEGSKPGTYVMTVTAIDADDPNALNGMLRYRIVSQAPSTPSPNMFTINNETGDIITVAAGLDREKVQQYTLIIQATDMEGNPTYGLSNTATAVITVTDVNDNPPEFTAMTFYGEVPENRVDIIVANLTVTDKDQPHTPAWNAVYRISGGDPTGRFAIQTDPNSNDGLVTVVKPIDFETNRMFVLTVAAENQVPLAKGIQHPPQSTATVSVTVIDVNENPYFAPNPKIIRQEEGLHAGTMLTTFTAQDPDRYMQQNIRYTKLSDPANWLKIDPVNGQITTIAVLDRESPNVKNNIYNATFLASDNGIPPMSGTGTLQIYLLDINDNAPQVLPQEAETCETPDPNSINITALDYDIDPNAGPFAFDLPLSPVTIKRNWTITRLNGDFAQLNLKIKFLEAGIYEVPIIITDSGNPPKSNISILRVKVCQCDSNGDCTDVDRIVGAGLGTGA

T3: VE-cadherin/Fc chimeric protein (UniProt P33151 48-593)
T3 construct: Bought from R&D Systems; also called vascular endothelial (VE)-cadherin/Fc chimeric protein; not shown: Fc part not described
T3 sequence (looked up): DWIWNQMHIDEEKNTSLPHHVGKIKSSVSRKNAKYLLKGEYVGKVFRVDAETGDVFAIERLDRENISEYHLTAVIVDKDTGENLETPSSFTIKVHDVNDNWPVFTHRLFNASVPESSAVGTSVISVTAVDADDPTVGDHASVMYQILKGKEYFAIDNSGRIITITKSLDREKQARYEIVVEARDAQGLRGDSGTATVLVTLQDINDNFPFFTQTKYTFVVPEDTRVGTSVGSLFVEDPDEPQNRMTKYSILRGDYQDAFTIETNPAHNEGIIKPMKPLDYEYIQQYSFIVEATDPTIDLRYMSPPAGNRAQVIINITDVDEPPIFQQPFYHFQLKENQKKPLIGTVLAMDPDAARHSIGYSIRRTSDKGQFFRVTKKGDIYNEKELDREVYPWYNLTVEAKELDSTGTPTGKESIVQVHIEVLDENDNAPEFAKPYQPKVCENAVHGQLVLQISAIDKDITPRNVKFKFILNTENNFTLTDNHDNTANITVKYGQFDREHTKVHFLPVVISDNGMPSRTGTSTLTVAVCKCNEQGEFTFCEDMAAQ

B1: phage clone Ec a3 (peptide)
peptide: WQMVLCPAC
modifications: not fully specified; cysteine pairing not given here; also: displayed on M13 phage pIII
notes: whole phage in the assay
B2: phage clone Ec a4 (peptide)
peptide: CSKYNSPLC
modifications: not fully specified; cysteine pairing not given here; also: displayed on M13 phage pIII
notes: whole phage in the assay
B3: phage clone Ec a23 (peptide)
peptide: CSRPQSGLC
modifications: not fully specified; cysteine pairing not given here; also: displayed on M13 phage pIII
notes: whole phage in the assay
B4: phage clone Nc 15 (peptide)
peptide: WEVCLTEKC
modifications: not fully specified; cysteine pairing not given here; also: displayed on M13 phage pIII
notes: whole phage in the assay
B5: phage clone Nc 25 (peptide)
peptide: WELCVSSSC
modifications: not fully specified; cysteine pairing not given here; also: displayed on M13 phage pIII
notes: whole phage in the assay
B6: phage clone Nc 5 (peptide)
peptide: WEFSICETC
modifications: not fully specified; cysteine pairing not given here; also: displayed on M13 phage pIII
notes: whole phage in the assay
B7: phage clone Nc 8 (peptide)
peptide: WTVCPIGNC
modifications: not fully specified; cysteine pairing not given here; also: displayed on M13 phage pIII
notes: whole phage in the assay

What follows are binders tested against T1, E-cadherin/Fc chimeric protein (assay: phage ELISA).
Experimental: (§1) The binding of each clone to the cadherin/Fc chimeric proteins was confirmed by ELISA. Wells of ProBind microtiter plates (Falcon) were coated with either N-cadherin/Fc or E-cadherin/Fc chimeric protein (100 ng/well) or human IgG1 (which contains the Fc fragment) (100 ng/well). After blocking the nonspecific sites with TBS containing 3% BSA and 1.2 mM CaCl₂ for 1 h at 37° C., phage clones (10⁹ pfu) diluted in TBST containing 3% BSA and 1.2 mM CaCl₂ (100 μl/well). Non-coated wells were also used to exclude any phage that bound to the plastic surface. After 1 h incubation at room temperature, wells were washed 3 times with TBST containing 3% BSA and 1.2 mM CaCl₂. M13 phage without any insert were used to control the non-specific binding of the phage itself to the target. Monoclonal anti-M13 antibody conjugated to horseradish peroxidase (Amersham Biosciences, Piscataway, N.J.) was diluted in TBST containing 3% BSA and 1.2 mM CaCl₂ (1:2,000) and added to each well (100 μl/well). After 1 h incubation at room temperature, wells were washed three times with TBST containing 3% BSA and 1.2 mM CaCl₂ and once with TBS containing 1.2 mM CaCl₂. Horseradish peroxidase substrate, TMB (Sigma), was added to each well (100 μl/well and after color development the reaction was stopped by addition of 100 μl 0.5 M sulphuric acid to each well. The intensity of the color was measured at 450 nm.
(§2) The phage clones shown to bind to the N-cadherin/Fc chimeric protein by ELISA were also evaluated for their ability to bind to E-cadherin/Fc and VE-cadherin/Fc chimeric proteins. The phage clones shown to bind to the E-cadherin/Fc chimeric protein by ELISA were also evaluated for their ability to bind to N-cadherin/Fc and VE-cadherin/Fc chimeric proteins. The same ELISA protocol described in the previous section was used to perform this evaluation with the exception that the wells were coated with either 100 ng N-cadherin/Fc, E-cadherin/Fc or VE-cadherin/Fc chimeric protein (R&D Systems, Minneapolis, Minn.).

Binder | binding result
B1 | binds
WTWHWPPCC (whole phage in the assay) [phage clone Ec a22] | binds
B2 | binds
B3 | binds

These binders were tested against T2, N-cadherin/Fc chimeric protein (assay: phage ELISA).
Experimental: as §1, §2

Binder | binding result
B1 | binds
WTWHWPPCC (whole phage in the assay) [phage clone Ec a22] | binds
B2 | binds
B3 | binds

What follows are binders tested against T3, VE-cadherin/Fc chimeric protein (assay: phage ELISA).
Experimental: as §1, §2

Binder | binding result
B1 | no binding (tested: 10^9 pfu)
WTWHWPPCC (whole phage in the assay) [phage clone Ec a22] | no binding (tested: 10^9 pfu)
B2 | no binding (tested: 10^9 pfu)
B3 | no binding (tested: 10^9 pfu)

What follows are binders tested against T1, E-cadherin/Fc chimeric protein (assay: summary table, column Peptide Binds to E-cad/Fc; assay not named).

Binder | binding result
H-WYVCVGAH-NH2 (Synthetic linear peptide) [H-WYVCVGAH-NH2] | no binding
H-HWYITTGPVREK-NH2 (Synthetic linear peptide) [H-HWYITTGPVREK-NH2] | no binding
H-EWMIHYDSALTS-NH2 (Synthetic linear peptide) [H-EWMIHYDSALTS-NH2] | binds
H-SWELYYPLRANL-NH2 (Synthetic linear peptide) [H-SWELYYPLRANL-NH2] | binds
H-WELRVSSP-NH2 (Synthetic linear peptide) [H-WELRVSSP-NH2] | no binding

Target: T1, E-cadherin/Fc chimeric protein
Assay: phage ELISA
Remark: another data set of the same source
Experimental: as §2

Binder | binding result
HWYITTGPVREK (whole phage in the assay) [phage clone Nc 12-01] | no binding (tested: 10^9 pfu)
B4 | no binding (tested: 10^9 pfu)
WEVRLTEKC (whole phage in the assay) [phage clone Nc a3] | no binding (tested: 10^9 pfu)
SWTLYTPSGQSK (whole phage in the assay) [phage clone Nc 12-04] | no binding (tested: 10^9 pfu)
WHTSWSDTY (whole phage in the assay) [phage clone Nc 19] | no binding (tested: 10^9 pfu)
B5 | no binding (tested: 10^9 pfu)
WLQPYFPSY (whole phage in the assay) [phage clone Nc 1] | no binding (tested: 10^9 pfu)
WLQPYFPSY (whole phage in the assay) [phage clone Nc a5] | no binding (tested: 10^9 pfu)
WELRVSSPC (whole phage in the assay) [phage clone Nc a7] | no binding (tested: 10^9 pfu)
SWTLYTPSGQSK (whole phage in the assay) [phage clone Nc 12-a2] | no binding (tested: 10^9 pfu)
B6 | no binding (tested: 10^9 pfu)
B7 | no binding (tested: 10^9 pfu)

Target: T3, VE-cadherin/Fc chimeric protein
Assay: phage ELISA
Remark: another data set of the same source
Experimental: as §2

Binder | binding result
HWYITTGPVREK (whole phage in the assay) [phage clone Nc 12-01] | no binding (tested: 10^9 pfu)
B4 | no binding (tested: 10^9 pfu)
WEVRLTEKC (whole phage in the assay) [phage clone Nc a3] | no binding (tested: 10^9 pfu)
SWTLYTPSGQSK (whole phage in the assay) [phage clone Nc 12-04] | no binding (tested: 10^9 pfu)
WHTSWSDTY (whole phage in the assay) [phage clone Nc 19] | no binding (tested: 10^9 pfu)
B5 | no binding (tested: 10^9 pfu)
WLQPYFPSY (whole phage in the assay) [phage clone Nc 1] | no binding (tested: 10^9 pfu)
WLQPYFPSY (whole phage in the assay) [phage clone Nc a5] | no binding (tested: 10^9 pfu)
WELRVSSPC (whole phage in the assay) [phage clone Nc a7] | no binding (tested: 10^9 pfu)
SWTLYTPSGQSK (whole phage in the assay) [phage clone Nc 12-a2] | no binding (tested: 10^9 pfu)
B6 | no binding (tested: 10^9 pfu)
B7 | no binding (tested: 10^9 pfu)

The binders below were run against T2, N-cadherin/Fc chimeric protein (assay: phage ELISA, 1.2 mM calcium).
Experimental: as §1
An ELISA was performed in the presence of either 1.2 mM calcium or 2 mM EDTA. […] The signal obtained in the presence of EDTA was lower than in the presence of calcium.

Binder | binding result
HWYITTGPVREK (whole phage in the assay) [phage clone Nc 12-01] | binds

These binders were tested against T2, N-cadherin/Fc chimeric protein (assay: summary table, column Peptide Binds to N-cad/Fc; assay not named).

Binder | binding result
H-WYVCVGAH-NH2 (Synthetic linear peptide) [H-WYVCVGAH-NH2] | binds
H-HWYITTGPVREK-NH2 (Synthetic linear peptide) [H-HWYITTGPVREK-NH2] | binds
H-EWMIHYDSALTS-NH2 (Synthetic linear peptide) [H-EWMIHYDSALTS-NH2] | binds
H-SWELYYPLRANL-NH2 (Synthetic linear peptide) [H-SWELYYPLRANL-NH2] | binds
H-WELRVSSP-NH2 (Synthetic linear peptide) [H-WELRVSSP-NH2] | binds
